This is an account of results in the DeepSol protein solubility set.

The data set is described as follows: soluble on expression in E. coli; label from the status in PepcDB or PDB records.
Consider “MGSDKIHHHHHHMIRVLVLYFTRGGHTAKIASAIADQLKNRGAQVDLVDINSAAATRINWPDYQVVALGACVLYGTYDKTVFQFIEQHNQALSALPNSFFCVNVVARNPEKRIPENNKYLQKFIALSPWTPADLKIIAGKVDYPSWPWYDRLAIQLIMKMTKGPTDPKSVIDYTDWEDVKIYADHLLDLTEVTATT”, for which the “soluble on expression in E. coli” value was “not soluble”.

For the sequence “MGSDKIHHHHHHMISNQILQNTIDGLKGITRTDLCVIDVEGKILAATFPNAEAFIEPAQAFVASPADSQVINGCQFFKVFDDHQLEYVLLAYGDSEDVYMIGKIASFQIQNLLVAYKERFDKDNFIKNLLLDNLLLVDIYNRAKKLHIDIEVRRVVFIVETNREKDGNELEKIRSLFGGKSKDFVTAVDEKNIIVVKELAENETYDDLRKTAEVILNLFRSEADGVHIAYGTVINELKEVSRSYKEARMALDVGKIFFEERNIIAYSQLGIGRLIYQLPIPLCKMFIKEIFDGKSPDDFDEEILSTINKFFENSLNVSETSRQLYIHRNTLVYRLDKLQKSTGLDLRVFEDAITFKIALMVVKYMKYMESMDY”, the “soluble on expression in E. coli” value was “not soluble”.

In the case of “MGSDKIHHHHHHMITFIGHVSKDVNVVDGKREIAYGGGVVMGAITSSLLGVKTKVITKCTREDVSKFSFLRDNGVEVVFLKSPRTTSIENRYGSDPDTRESFLISAADPFTESDLAFIEGEAVHINPLWYGEFPEDLIPVLRRKVMFLSADAQGFVRVPENEKLVYRDWEMKEKYLKYLDLFKVDSREAETLTGTNDLRESCRIIRSFGAKIILATHASGVIVFDGNFYEASFRSWSLEGRTGRGDTCTAAFLVGFVFKKMSIEKATKFAAAVTSVKMRHPGPLRREDLEAISGDQYF”, the “soluble on expression in E. coli” value was “soluble”.

In the case of “MGSDKIHHHHHHMITVSNVSVQFGKRVLFNDVNLKFTSGNCYGIIGANGAGKSTFLRTIYGDLDPTTGTIALGPGERLSVLSQDHFKWDAYTVMDTVMMGHTVLWDIMKQREVLYAKEDFTDEDGLKVSELEEKFAELDGWNAESDAAMLLSGLGIKEDKHYTLMGELSGKEKVRVMLAQALYGNPDNLLLDEPTNDLDMETVTWLEEYLSNFEHTVLVVSHDRHFLDSVCTHTVDIDYGKINMFAGNYSFWYESSQLALRQQQNQKAKAEEKKKELEEFIRRFSANVAKSKQTTSRKKMLEKLNVEEIKPSSRKYPGIIFTPEREPGNQILEVSGLSKKTEEGVVLFSDVNFNIEKGDKVVFLSRNPRAMTAFFEIINGNMKPDAGQFNWGVTITTAYLPLDNTDFFNTDLNLVDWLSQFGEGNEVYMKGFLGRMLFSGEEVLKKVSVLSGGEKMRCMIARMQLRNANCLILDTPTNHLDLESIQAFNNNLKTYKGNILFSSHDHEFIQTVANRIIELTPNGIIDKMMEYDEYITSDHIKELRAKMYGDK”, the “soluble on expression in E. coli” value was “not soluble”.

For “MGSDKIHHHHHHMIVVKPSPGSAQSIPANANGPKWDVGEAVSQLSWDDLRIIKTLSDCSNRAATAKKLGINVSTVSRRVAQVEKTLGVALFDHRKAGYLLTAEGVELRALAERVELDIVSVTRRVSRAGQGPLGKLRITTSDSLLLYFLTPIIADFKALNEGITIEVLVGNQTLSLARDESDIAVRATKKPTDTLVGRKLANIAWAAYGSVKQAAITDPFAEGQAWVSYSGGLCGLKATSYVECRVPSELISYRTDSVAAASAAIAAGLGFGFLPCMLGDITPGLVRAGPVVQELQDELWLLTHQDIRKSWRVKAFMTFCAAAVADLKPLVEGQQAIPAS”, the “soluble on expression in E. coli” value is “not soluble”.

As for “MGSDKIHHHHHHMIWNIDYFCNLRCKSCNAWQGKIFFPEDQIDKHLQEMKNNGIKIVSVTGGEPTLNKNVVDIIRKLKENHFFTHIATNGTNPYVLRKLYPYLDAVTISLDSNIPEEHNAYRGLKIFDTVVSNIKEAKSKVKIVTANMLVTNFNYFKVGEIADFANNELGVPLSMCFPEQDAYYFQDFQVTNDMIRQAFSYAYENYHKHVFGNMRSYYKEAVDFIDGKGSRACKAGQEIFYTDYRGKVHPCFEHVEVVLNKKPTWDIYDNKCHKCFTECFLEPSIDHTFEAASLIGKIWWFNHVKRRDIKYIETKRPKQVPS”, the “soluble on expression in E. coli” value is recorded as “not soluble”.

Regarding “MGSDKIHHHHHHMIYIGLTGWGDHDELYTMGTKPSEKLYTYGSHFPTVEVDSSFYAIQPKRNMEKWASDTPDCFRFVVKAYQGLTGHQRGEIPFSSKEDMFAAFVESLQPLLESNKLAMVLFQFPPWFDCTKEHVRYLRYCKQQMGKIPVALEFRHQSWFRPSVRERTLSFMREEGWIHSICDEPQGGEGSVPTVLVPSNEENVLVRFHGRNVEGWRRPQEGNWREVRYLYRYSKEELAEWAEHLKQLAAQVKDVYVLFNNNSGGDAAANAKQMLELLEIEYHGLTPKQLNLFE”, the “soluble on expression in E. coli” value was “not soluble”.

In the case of “MGSDKIHHHHHHMKAFQYAARAQRIVFGAGTIRQVGEEIDALGASSVLVLSTPEQRRLAEQVSDLLGARAIGIFDRAVMHVPVETARAACAMAFELGADSVVAIGGGSTTGLAKAIALEMSVPVLAIPTTYAGSEMTTIYGLTDAGLKRTGTDVRVLPRTVIYDPELTYLLPAAISVTSGINALAHAAEGLYAHDRNPISDLMAREGIQAMAAALPALVSERDTARLREARAQALYGAWLCGAVLGSVGVALHHKLCHTLGGSFNLPHAETHTIILPHALAYNAKAAPDAMASIAQALGADNAAQGAFDLARTTGAPLGLRQIGMREDELDKACEIALQNQYPNPRPLEAGAIRELLQNAWEGRRPV”, the “soluble on expression in E. coli” value is on record as “not soluble”.

As for “MGSDKIHHHHHHMKALVVGACTRPVVNSLKKLNFEVYSVSHYNPVDLNADHKKYTINDKFHGHLADKYSEKELLNLSKEYVDLVDYIFVCSGIFESKTSKTPNWDVVGNSPKRIKNISDKYKTVKKLENLGFNVPVTYLVNNKYQFEKCLSELKSVVVKPISGSGGIGVTNIDFQNTDNLDINYPVLVQERIKSESYSASFIGSNFLCFNKQLINNNIYVGNISPYVLNLKNETIQEFEEVIASLDLLGMNGIDFMLKDGIPYIIEVNPRILGTYETIELSSRYNLSKAILENKPVKPKDCFFKKIVFSDKGSSYSIDKNPFLRDIPQKGTYIEEGEPVVTIIGRNMADVREMECGILRGV”, the “soluble on expression in E. coli” value is on record as “not soluble”.

For “MGSDKIHHHHHHMKDVSIVLSGEAGQGIQTVENVLTRVLKDSGFHVFATKEYMSRVRGGNNTTEIRVSSRRVRSFVDRIDVLIPLGKGATERLKNRITEKTLVIGEEEFIKESPGEKIVIPFLNIAKQIGKSIYANSVAIGFLSGLLGADESALKDQITRQFSSKGEDIVNDNIRAALEGYKKGQELSQKIEFDVEKDPSIKNEVLLNGAEAVGLGAIAGGCNFVSSYPMSPSTSVLVFLAQHKNDFGIVVEQAEDEIAAMNMIIGAWYAGARGLVTTSGGGFALMEEALSLAGMIESPAVIHLAQRPGPATGLPTRTEQGDLNLALYAGHGDFPRVIYAPGNVEEAFYLTQKAFNVADKYQVPVFVLTDQYLVDSYYNLPGFDLNELKVEKHFIKTTRDYIRYAITEDGISPRGIPGYGEGLVRVDSDEHDEFGHITEDFNTRVRMVNKRLRKGETLKKEIVKPKLIGDENYRVLLVAWGSTLEPIKEAIEGLDGVALLHFSQVWPIDESVATYFEKAEKVVAVEGNATGQFANLIRQVTGFHIKDRILKYNGLQFSVEELKEKIAEVL”, the “soluble on expression in E. coli” value was “not soluble”.

Regarding “MGSDKIHHHHHHMKEAKKIDISKLKTGFLGKFPSHQLSRILSSEPDRLTEPEFLAKALKENKYVPYYYINVRENPTSIKIYRYVTKISNRDNDIDEVKNKFDSFLYGKSIVILDEVDFLQDYDVLYHITRHTKANLILLTQKVYWYMDTNDESVKSSLQPDHIVFYEYSSDEIREILKMRADEGLNKYDPDSLGLLSAMLVRNYRSDARIGIKALEIIGRMNEWDDDSVRTALKQAYVEVEGETLKNLGDRDLLILAALIKNQDTNRAYSEVSASSNLLLRGVSKSTFF”, the “soluble on expression in E. coli” value was “not soluble”.
